What was measured:
[1] = target: T1, human CXCR4 (chemokine (C-X-C motif) receptor 4) (human, UniProt P61073 1-352); assay: cell-based or functional assay
[2] = target: T1, human CXCR4 (chemokine (C-X-C motif) …); assay: flow cytometry on Raji cells, dilution series 0.007-267 nM
Procedure: (§1) Binding was detected by 2nd Ab (Alexa Fluor 647-conjugated goat anti-human IgG, Fcgamma specific, Jackson ImmunoResearch Laboratories, West Grove Pa.) and acquired with LSRFortessa cell analyzer (BD Biosciences, San Jose Calif.). Curve fit and EC50 calculation was performed with Prism software (GraphPad Software, La Jolla Calif.). Tables 9A and 9B and FIGS. 3A and 3B.

cynomolgus CXCR4 [3] = target: T2, cynomolgus CXCR4 (cynomolgus, UniProt Q28474 1-352); assay: flow cytometry on Cyno-CXCR4 transfected CHO cells, dilution series 0.007-267 nM
T2 construct: whole, on cells; On Cyno-CXCR4 transfected CHO cells and on HSC-F (cynomolgus T cell line); also called Cyno-CXCR4; CynoCXCR4
Procedure: as §1

[4] = target: T1, human CXCR4 (chemokine (C-X-C motif) …); assay: cell-based or functional assay; remark: listed apart in the source
cynomolgus CXCR4 [5] = target: T2, cynomolgus CXCR4; assay: flow cytometry on HSC-F (cynomolgus T cell line) cells, dilution series 0.007-267 nM
Procedure: as §1

[6] = target: T1, human CXCR4 (chemokine (C-X-C motif) …); assay: flow cytometry on HPB-ALL cells, dilution series 0.007-267 nM
Procedure: as §1

T1 sequence (P61073 whole entry): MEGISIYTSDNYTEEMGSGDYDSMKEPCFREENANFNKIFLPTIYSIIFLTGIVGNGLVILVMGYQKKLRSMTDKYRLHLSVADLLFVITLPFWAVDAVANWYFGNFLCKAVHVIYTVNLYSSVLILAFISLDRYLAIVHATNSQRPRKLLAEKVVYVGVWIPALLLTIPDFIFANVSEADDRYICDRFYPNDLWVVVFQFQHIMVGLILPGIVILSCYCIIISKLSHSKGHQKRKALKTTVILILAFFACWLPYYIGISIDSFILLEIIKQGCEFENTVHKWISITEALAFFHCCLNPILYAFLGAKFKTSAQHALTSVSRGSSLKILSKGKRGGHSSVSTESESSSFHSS
T2 sequence (Q28474 whole entry): as the sequence (P61073 whole entry) above, with M24I, N35H, K38R, R146K, N176S counted along it

B1: humanized anti-CXCR4 antibody h3G10.1.91.A58B (antibody, V domains shown)
VH: EVQLVESGGGLVQPGGSLRLSCAASGFTFSDYYMSWVRQAPGKGLEWVGFIRHKANFETTEYSTSVKGRFTISRDDSKNSLYLQMNSLKTEDTAVYYCARDLPGFAYWGQGTLVTVSS
VL: DIVMTQSPDSLAVSLGERATINCKSSQSLFNSHTRKNYLAWYQQKPGQPPKLLIYWASARGSGVPDRFSGSGSGTDFTLTISSLQAEDVAVYYCKQSFNLRTFGGGTKVEIK
notes: Whole antibody (detected with an anti-human IgG Fc gamma specific second antibody); also called h3G10.1.91 VH / h3G10.A58B VL; CXCR4 Ab h3G10.1.91.A58B
[1]
  EC50 (M), cAMP assay, CHO-K1 cells transfected with human CXCR4: 3.92e-08 M
[2]
  EC50: 3.05 nM
Cynomolgus CXCR4 [3]
  EC50: 0.16 nM
[4]
  IC50 (M), Calcium Flux Activity (average of 3 experiments): 2.17e-09 M
Cynomolgus CXCR4 [5]
  EC50: 2.58 nM
[6]
  EC50: 0.27 nM
